# Assay results: the RNAGym collection of RNA variant scans (doi:10.7554/elife.80360)
# B1: Hairpin Ribozyme (parent)
# chain: GUCCUCUUUCACGUGCGCGUGAAAGAGAGAAGUGAACCAGAGAAACACACGUUGUGGUAUAUUACCUGGUA
# Variants of: B1
# Assay: self-cleavage, relative activity (ratio to wild type); higher = more cleavage; co-transcriptional
row,Variant,self-cleavage
1,GUCCUCUUUCACGUGCGCGUGAAAGAGAGAAGUGAACCAGAGAAACACACGAUGUGGUAUAUUAACUGGUA [U52A C65A],1.06
2,GUCCUCUUUCACCUGCGCGUGAAAGAGCGAAGUGAACCAGAGAAACACACGUUGUGGUAUAUUACCUGGUA [G13C A28C],0.343
3,GUCCUCUUUCAAGUGCGCGUGAAAGAGAGAAGGGAACCAGAGAAACACACGUUGUGGUAUAUUACCUGGUA [C12A U33G],0.175
4,GUCCUCUUUCACGUGCGCGUGAAAGAGAGAAGUGAACCAGAAAAACACACGUCGUGGUAUAUUACCUGGUA [G42A U53C],0.388
5,GUCCUCUUUCACGUGCGCGUGAAAGAGAGAAGUGAACCCGAGAAACACACGAUGUGGUAUAUUACCUGGUA [A39C U52A],0.543
6,GUCCUCUUUCACGUGCGCGUGAAAGAGAGAAGUGAACCUGAGAAACACGCGUUGUGGUAUAUUACCUGGUA [A39U A49G],0.169
7,GUCAUCUUUCACGCGCGCGUGAAAGAGAGAAGUGAACCAGAGAAACACACGUUGUGGUAUAUUACCUGGUA [C4A U14C],0.115
8,GUCCUCUUUCCCGAGCGCGUGAAAGAGAGAAGUGAACCAGAGAAACACACGUUGUGGUAUAUUACCUGGUA [A11C U14A],0.533
9,GUCCUCUUUCACGUGCGCCUGAAAGAGAGAAGUGAACCAGAGAAACACACGUUGUGGUAUAUAACCUGGUA [G19C U63A],0.107
10,GUCCUCUUUCACGUGCGCUUGAAAGAGAGAAGUGAACCAGAGAAACACACGUUGUGGUAUAUUACCUGGAA [G19U U70A],0.773
11,GUCCUCUUUCACGUGCGCGUGAAAGAAAGAAGUGAACCAGAGAAACACACGUUGUGGUGUAUUACCUGGUA [G27A A59G],0.191
12,GUCCUCUUUCACGUGCGCGUGAAAGAGAGACGUGAACCAGAGAAACACACGUUGUGCUAUAUUACCUGGUA [A31C G57C],0.189
13,GUCCUCAUUCACAUGCGCGUGAAAGAGAGAAGUGAACCAGAGAAACACACGUUGUGGUAUAUUACCUGGUA [U7A G13A],0.962
14,GUCCUCUUUCACGUGCGCGUGAAAGAGAGAAGUGAACCAGAGAAACACACGUUGUGGUAUAUUACAUGGUC [C66A A71C],0.445
15,GUCCUCUUUCACGUGCGCGUUAAAGAGAGAAGUGAACCAGAGAAACACACGUUGUGGUAUAUUACCUGGCA [G21U U70C],0.687
16,GUCCUCUUUCACGUGCGCGUGAAAGAGAGAAGUGAGCCAGAGAAACACACGUUGUGGUAUAUUACCUAGUA [A36G G68A],0.306
17,GUCCUCUUUCACGUGCGCGUGAAAGAGAGAAGUGAACCAGAGAAUCACACGUUGUGGUAUAAUACCUGGUA [A45U U62A],0.149
18,GUCCUCUUUCACGUGUGCGUGAAAGAGAGAAGCGAACCAGAGAAACACACGUUGUGGUAUAUUACCUGGUA [C16U U33C],0.27
19,GUCCUCUUUCACGUGCGCGCGAAAGAGCGAAGUGAACCAGAGAAACACACGUUGUGGUAUAUUACCUGGUA [U20C A28C],0.374
20,GUCCUCUUUCACGUGCGCGUGAAAAAGAGAAGUGAACCAGAGAAAGACACGUUGUGGUAUAUUACCUGGUA [G25A C46G],0.135
21,GUCCUCUUUCACGUGCGCGUGAAUGAGAGAAGUGAACCAGUGAAACACACGUUGUGGUAUAUUACCUGGUA [A24U A41U],1.17
22,GUCCUCUUUCACGUGCGCGUGAAAGAGAGAAGUGAACCACAGAAACAUACGUUGUGGUAUAUUACCUGGUA [G40C C48U],0.135
23,GUCCUGUUUCACGUGCGCGUGAAAGAGAGAAGUGAACCUGAGAAACACACGUUGUGGUAUAUUACCUGGUA [C6G A39U],0.164
24,GUCCUCUUUCACGUGCGCGUGAAAGUGAGAAGUGAACCAGAGAAACACACGUUGUGGUUUAUUACCUGGUA [A26U A59U],0.108
25,GUCCUCUUUCACGUGCACGUGAAAGAGAGAAAUGAACCAGAGAAACACACGUUGUGGUAUAUUACCUGGUA [G17A G32A],0.105
26,GUCCUCUUUCGCGUGCGCGUGAAAGAGAGAAGUGAACUAGAGAAACACACGUUGUGGUAUAUUACCUGGUA [A11G C38U],0.432

row,Variant,self-cleavage
1,GUCCUCUUUCACGUGCGCGUGAAAGAGUGAAGUGAACCAGAGAAACACACGUUGUGGUUUAUUACCUGGUA [A28U A59U],0.185
2,GUCCUCUUUCACGUGCCCGUGAAAGAGAGAAGUGAACCAGAGAAACACACGUUGUGGUAUAUAACCUGGUA [G17C U63A],0.193
3,GUCCUCUUUCACGUGCGCGUGAAAGAGAGAAGUGAACCAGCGAAACACACGUUGUGGUCUAUUACCUGGUA [A41C A59C],0.17
4,GUCCUCUUUCACGUGCGCGUGAAAAAGAGAAGUGAACCAGAGAAACACAUGUUGUGGUAUAUUACCUGGUA [G25A C50U],0.315
5,GUCCUCUUUCACGUGCGCGUGAAUGAGAGAAGUGAACCAGAGAAACACACGUUGUGGCAUAUUACCUGGUA [A24U U58C],0.834
6,GUCCGCUUUCACGUGCGCGUGAAAGUGAGAAGUGAACCAGAGAAACACACGUUGUGGUAUAUUACCUGGUA [U5G A26U],0.51
7,GUCCUCUUUCACGUGCGCUUGAAAGAGAGCAGUGAACCAGAGAAACACACGUUGUGGUAUAUUACCUGGUA [G19U A30C],0.128
8,GUCCUCAUUCACGUGCGCUUGAAAGAGAGAAGUGAACCAGAGAAACACACGUUGUGGUAUAUUACCUGGUA [U7A G19U],0.581
9,GUCCUCUUUCACGUGCGCGUGAAAGAGAGAAGUUAACCAGAGAAACACACGUUGUGGUAGAUUACCUGGUA [G34U U60G],1.34
10,GUCCUCUUUCACGUGCGCGUGAAAGAGAAAAGUGAACCAGAAAAACACACGUUGUGGUAUAUUACCUGGUA [G29A G42A],0.139
11,GUCCUCUUUCACGUGCGCGUCAAAGAGAGAAGUGAACCAGAGAAACACACGUUGUGGUAUAUUACCUCGUA [G21C G68C],0.155
12,GUCCUCUUUCACGUGCGCGUCAAAGAGAGAAGUUAACCAGAGAAACACACGUUGUGGUAUAUUACCUGGUA [G21C G34U],1.12
13,GUCCUCUUUCACGUGCGCGUGAAAGAGAGAAGUGAACCAGAGAAACACACGGUGUCGUAUAUUACCUGGUA [U52G G56C],0.0868
14,GUCCUCUUUCACGCGCGCGUGAAAGAGAGAAGUGAACCAGAGAAACACACGUUGUGGUAUAUUACCUGAUA [U14C G69A],0.341
15,GUCCUCUUUCACGUGCGCGUGAAAGAGAGAAGUGAACCAGAGAAACACACGUUGUAGUAUAUCACCUGGUA [G56A U63C],0.286
16,GUCCUCUGUCACGUGCGCGUGAAAGAGAGAAGUGAACCAGAGAAACACACGUUGUGGUAGAUUACCUGGUA [U8G U60G],0.51
17,GUCCUCUUUCACGUGCGCGUUAAAGAGAGAAGUGAACCAGAGGAACACACGUUGUGGUAUAUUACCUGGUA [G21U A43G],0.282
18,GUCCUCUUUCACGUGCGCGUGAAAGAGAGAAGUUAACCAGAGUAACACACGUUGUGGUAUAUUACCUGGUA [G34U A43U],0.0758
19,GUCCUCUUUCCCGUGCGCGUGCAAGAGAGAAGUGAACCAGAGAAACACACGUUGUGGUAUAUUACCUGGUA [A11C A22C],0.803
20,GUCCGCUUUCACGUGCGCGUGAAAGAGAGAAGUGAACCAGAGAAACACACGUUGUGGUAUAUUACCUGGUC [U5G A71C],0.732
21,GUCCUCUUUCACGUGCGCCUGAAAGAGAGAAGUGAACCAGAGAAACACACGUUGUGGUAUACUACCUGGUA [G19C U62C],0.283
22,GUCCUCUGUCACGUGCACGUGAAAGAGAGAAGUGAACCAGAGAAACACACGUUGUGGUAUAUUACCUGGUA [U8G G17A],0.648
23,GUCCUCUUUCACGUGCGCGUGAAAAAGAGAAGUGAACCAGAGAAACACACGUUGUGGUAUGUUACCUGGUA [G25A A61G],0.208
24,GUCCUCUUUCACGUGCGCGUGAAAGAGAGAAGUGAACCAGAGAAACACACGUUGUCGUAUAUUACCUCGUA [G56C G68C],0.236
25,GUCCUCUUUCACGUGCGCGUGAAAGAGAGAAGUGAACCAGAGAAUCACACGUUGUGGUAUAUUACCUGGAA [A45U U70A],0.0397
26,GUCCUCAUUCACGUGCGCGUGAAAGAGAGAAGUGAACCAGAGAAACACACGUUUUGGUAUAUUACCUGGUA [U7A G54U],0.589

row,Variant,self-cleavage
1,GUCCUCUUUCACGUGCGCGUGAAAGAGAGAAGUGAACCAGACAAACACACGUCGUGGUAUAUUACCUGGUA [G42C U53C],0.491
2,GUCCUCUUUCACCUGCGCGUGAAAGAGAGAAGUGAACCAGAGAAGCACACGUUGUGGUAUAUUACCUGGUA [G13C A45G],0.178
3,GUCUUCUUUCACGUGUGCGUGAAAGAGAGAAGUGAACCAGAGAAACACACGUUGUGGUAUAUUACCUGGUA [C4U C16U],0.362
4,GUCCUCUUUCACGUGCGCGUGAUAGAGAGAAGUGAACCAGAGAAACACACGUUGUGGUAUAUUACCUGAUA [A23U G69A],0.335
5,CUCCUCUUUCACGUGCGCGUGAAAGAGAGAAGGGAACCAGAGAAACACACGUUGUGGUAUAUUACCUGGUA [G1C U33G],0.228
6,GUCCUCUUUCACGUGCGCGUGAAAGAGAGAAGUGAACCAGAGAAACACACGUUGUGGUAUAUGACCUGCUA [U63G G69C],0.138
7,GUCCUCUUUCACGUGCGCGUGAAAGAGAGUAGGGAACCAGAGAAACACACGUUGUGGUAUAUUACCUGGUA [A30U U33G],0.138
8,GUCCUUUUUGACGUGCGCGUGAAAGAGAGAAGUGAACCAGAGAAACACACGUUGUGGUAUAUUACCUGGUA [C6U C10G],0.416
9,GUCCUCUUUCACGUGCGCUUGAGAGAGAGAAGUGAACCAGAGAAACACACGUUGUGGUAUAUUACCUGGUA [G19U A23G],0.932
10,GUCCGCUUUCACGUGCGCGUGAAAGAGAGAAGUGAACCAGAGAAACACACGUUGGGGUAUAUUACCUGGUA [U5G U55G],0.2
11,GUCCUCUUUCACAUGCGCGUGAAAGAGAGAAGUGAACCAGAGAAACUCACGUUGUGGUAUAUUACCUGGUA [G13A A47U],0.172
12,GUCCUCUUUCACGUGCGCGUGAAAGAGAGAAGUGAACGAGAGAAACACACGUUGUGGUAUAUUACCUAGUA [C38G G68A],0.247
13,GUCCUGUUUCACGUGCGCGUGAAAGAGAGAAGUGAACCAGAGAAUCACACGUUGUGGUAUAUUACCUGGUA [C6G A45U],0.101
14,GUUCUCUUUCACGUGCGCGUGAAAGAGAGAAGUGAACCAGAGAAACACACGUUGUGGAAUAUUACCUGGUA [C3U U58A],0.257
15,GCCCUCUUUCACGUGCGGGUGAAAGAGAGAAGUGAACCAGAGAAACACACGUUGUGGUAUAUUACCUGGUA [U2C C18G],0.154
16,UUCCUCUUUCACGUGCGCCUGAAAGAGAGAAGUGAACCAGAGAAACACACGUUGUGGUAUAUUACCUGGUA [G1U G19C],0.105
17,GUCCUCUUUCACUUGCGCGUGAAAGAGAGAAGUGAACCAAAGAAACACACGUUGUGGUAUAUUACCUGGUA [G13U G40A],0.342
18,GUCCUCUUUCAGGUGCGCGUGAAAGAGAGAAGUGAACCAGAGAAACACACGUUGUGGUAUAAUACCUGGUA [C12G U62A],0.176
19,GUCCUCUUUCACGUGCGCUUGAAAGAGAGAAGUGAACGAGAGAAACACACGUUGUGGUAUAUUACCUGGUA [G19U C38G],0.225
20,GUCGUCUUUCUCGUGCGCGUGAAAGAGAGAAGUGAACCAGAGAAACACACGUUGUGGUAUAUUACCUGGUA [C4G A11U],0.232
21,GUCCUCUUUCACGUGCGCGUGAAAGAGAGAAGUGAACCAGAGAAACACACGUAGUGGUAUAUUACCUGGCA [U53A U70C],0.951
22,GUCCUCUUUCACGUGCGCGUGAAAGAGAGAAGUGAACCAGAGAAACACACGGUGUGGUAUAUUACAUGGUA [U52G C66A],0.189
23,GUCCUCUAUCACGUGCGCGUGAAAGAGAGAAGUGAACCAGAGAAACACACGUUGUGGUAUAUUACAUGGUA [U8A C66A],0.128
24,GUCCUCUUUCACGUGCGCGUGAAAGUGAGAAGUGAACCAGAGAAACACACGUUGUGGUAUCUUACCUGGUA [A26U A61C],0.226
